# According to US20240317834A1, “COMPOSITIONS AND METHODS FOR NEUROLOGICAL DISEASES” (CODA BIOTHERAPEUTICS, INC., priority 2020, published 2024):
# System: Lenti-X 293T cells
# Assay: YFP fluorescence quenching anion reporter plate reader assay of engineered receptors stimulated with acetylcholine or a non-native ligand
# Assay type: cell-based
# Conditions: for percent quench of YFP fluorescence, 30 nM TC-6683: TC-6683 30 nM; for percent quench of YFP fluorescence, 300 nM TC-6683: TC-6683 300 nM; for percent quench of YFP fluorescence, 3 uM TC-6683: TC-6683 3 uM; for percent quench of YFP fluorescence, 30 uM TC-6683: TC-6683 30 uM; for percent quench of YFP fluorescence, 100 uM TC-6683: TC-6683 100 uM; for percent quench of YFP fluorescence, 10 uM ach: acetylcholine 10 uM; for percent quench of YFP fluorescence, 100 uM ach: acetylcholine 100 uM; for percent quench of YFP fluorescence, 1 mM ach: acetylcholine 1 mM; for percent quench of YFP fluorescence, 3 mM ach: acetylcholine 3 mM
# Outline: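 YFP quench was followed for about 1 min 43 s after ligand delivered in iodide-based ECS, pH 7.2. Values are end-of-read fluorescence (last 10 s) divided by the pre-ligand baseline (15 s). Cells were LX293T, transfected with receptor DNA a day before the assay.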
molecule,measurement,setting,value
"CODA340: engineered chimeric LGIC receptor, L131E in SEQ ID NO: 33 (protein, synthetic sequence of chimeric LGIC) MRCSPGGVWLALAASLLHVSLQGEFQRKLYKELVKNYNPLERPVANDSQPLTVYFSLSLLQIMDVDEKNQVLTTNIWLQMSWTDHYLQWNVSEYPGVKTVRFPDGQIWKPDILLYNSADERFDATFHTNVEVNSSGHCQYLPPGIFKSSCPMDLKNFPMDVQTCKLKFGSWSYGGWSLDLQMQEADISGYIPNGEWDLVGIPGKRSERFYECCKEPYPDVTFTVTMRRRMGYYLIQMYIPSLLIVILSWISFWINMDAAPARVGLGITTVLTMTTQSSGSRASLPKVSYVKAIDIWMAVCLLFVFSALLEYAAVNFVSRQHKELLRFRRKRRHHKSPMLNLFQEDEAGEGRFNFSAYGMGPACLQAKDGISVKGANNSNTTNPPPAPSKSPEEMRKLFIQRAKKIDKISRIGFPMAFLIFNMFYWIIYKIVRREDVHNQ",YFP fluorescence quenching using CNL001,"1 nM CNL001, first column",76.413%
same,YFP fluorescence quenching using CNL001,"1 nM CNL001, second column",77.144%
same,YFP fluorescence quenching using TC-5619/Bradanicline,3 nM brd,68.57%
same,YFP fluorescence quenching using Varenicline,"3 nM var, first column",−4.061
same,YFP fluorescence quenching using Varenicline,"3 nM var, second column",−0.568
same,YFP fluorescence quenching using CNL001,"10 nM CNL001, first column",78.258%
same,YFP fluorescence quenching using CNL001,"10 nM CNL001, second column",78.763%
same,YFP fluorescence quenching using TC-5619/Bradanicline,30 nM brd,76.85%
same,YFP fluorescence quenching using Facinicline,30 nM fac,82.51
same,YFP fluorescence quenching using Varenicline,"30 nM var, first column",62.964
same,YFP fluorescence quenching using Varenicline,"30 nM var, second column",63.631
same,YFP fluorescence quenching using CNL001,"50 nM CNL001, first column",79.757%
same,YFP fluorescence quenching using CNL001,"50 nM CNL001, second column",79.327%
same,YFP fluorescence quenching using ABT-126,50 nM abt,2.2%
same,YFP fluorescence quenching using CNL001,"100 nM CNL001, first column",79.011%
same,YFP fluorescence quenching using CNL001,"100 nM CNL001, second column",79.948%
same,YFP fluorescence quenching using CNL002,100 nM CNL002,49.97%
same,YFP fluorescence quenching using ABT-126,100 nM abt,25.39%
same,YFP fluorescence quenching using AZD-0328,100 nM azd0328,82.48%
same,YFP fluorescence quenching using Facinicline,100 nM fac,83.6
same,YFP fluorescence quenching using ABT-126,300 nM abt,36.48%
same,YFP fluorescence quenching using AZD-0328,300 nM azd0328,82.04%
same,YFP fluorescence quenching using TC-5619/Bradanicline,300 nM brd,78.49%
same,YFP fluorescence quenching using Facinicline,300 nM fac,82.92
same,YFP fluorescence quenching using Varenicline,"300 nM var, first column",74.912
same,YFP fluorescence quenching using Varenicline,"300 nM var, second column",75.084
same,YFP fluorescence quenching using Varenicline,"500 nM var, first column",76.346
same,YFP fluorescence quenching using Varenicline,"500 nM var, second column",75.876
same,YFP fluorescence quenching using CNL001,"1 uM CNL001, first column",79.855%
same,YFP fluorescence quenching using CNL001,"1 uM CNL001, second column",80.618%
same,YFP fluorescence quenching using CNL002,1 uM CNL002,67.8%
same,YFP fluorescence quenching using ABT-126,1 uM abt,50.76%
same,YFP fluorescence quenching using TC-6987,1 uM tc6987,80.13
same,YFP fluorescence quenching using Varenicline,"1 uM var, first column",75.805
same,YFP fluorescence quenching using Varenicline,"1 uM var, second column",74.856
same,YFP fluorescence quenching using TC-6987,10 uM tc6987,81.29
same,YFP fluorescence quenching using CNL002,30 uM CNL002,64.58%
same,YFP fluorescence quenching using AZD-0328,30 uM azd0328,81.8%
same,YFP fluorescence quenching using Facinicline,30 uM fac,82.68
same,YFP fluorescence quenching using TC-6987,500 uM tc6987,79.6
same,"percent quench of YFP fluorescence, 30 nM TC-6683",,30.14%
same,"percent quench of YFP fluorescence, 300 nM TC-6683",,33.02%
same,"percent quench of YFP fluorescence, 3 uM TC-6683",,41.68%
same,"percent quench of YFP fluorescence, 30 uM TC-6683",,35.75%
same,"percent quench of YFP fluorescence, 100 uM TC-6683",,24.32%
same,"percent quench of YFP fluorescence, 10 uM ach",,15.29%
same,"percent quench of YFP fluorescence, 30 uM ach",acetylcholine 30 uM,66.56%
same,"percent quench of YFP fluorescence, 100 uM ach",,81.31%
same,"percent quench of YFP fluorescence, 1 mM ach",,80.77%
same,"percent quench of YFP fluorescence, 3 mM ach",,77.31%
"CODA342: engineered chimeric LGIC receptor, L131R in SEQ ID NO: 33 (protein, synthetic sequence of chimeric LGIC) MRCSPGGVWLALAASLLHVSLQGEFQRKLYKELVKNYNPLERPVANDSQPLTVYFSLSLLQIMDVDEKNQVLTTNIWLQMSWTDHYLQWNVSEYPGVKTVRFPDGQIWKPDILLYNSADERFDATFHTNVRVNSSGHCQYLPPGIFKSSCPMDLKNFPMDVQTCKLKFGSWSYGGWSLDLQMQEADISGYIPNGEWDLVGIPGKRSERFYECCKEPYPDVTFTVTMRRRMGYYLIQMYIPSLLIVILSWISFWINMDAAPARVGLGITTVLTMTTQSSGSRASLPKVSYVKAIDIWMAVCLLFVFSALLEYAAVNFVSRQHKELLRFRRKRRHHKSPMLNLFQEDEAGEGRFNFSAYGMGPACLQAKDGISVKGANNSNTTNPPPAPSKSPEEMRKLFIQRAKKIDKISRIGFPMAFLIFNMFYWIIYKIVRREDVHNQ",YFP fluorescence quenching using CNL001,"1 nM CNL001, first column",23.532%
same,YFP fluorescence quenching using CNL001,"1 nM CNL001, second column",26.054%
same,YFP fluorescence quenching using TC-5619/Bradanicline,1 nM brd,−7.83%
same,YFP fluorescence quenching using TC-5619/Bradanicline,3 nM brd,−12.89%
same,YFP fluorescence quenching using Varenicline,"3 nM var, first column",0.271
same,YFP fluorescence quenching using Varenicline,"3 nM var, second column",−3.613
same,YFP fluorescence quenching using CNL001,"10 nM CNL001, first column",43.69%
same,YFP fluorescence quenching using CNL001,"10 nM CNL001, second column",54.016%
same,YFP fluorescence quenching using TC-5619/Bradanicline,10 nM brd,−10.47%
same,YFP fluorescence quenching using TC-5619/Bradanicline,30 nM brd,59.48%
same,YFP fluorescence quenching using Facinicline,30 nM fac,−6.2
same,YFP fluorescence quenching using Varenicline,"30 nM var, first column",−4.935
same,YFP fluorescence quenching using Varenicline,"30 nM var, second column",−4.363
same,YFP fluorescence quenching using CNL001,"50 nM CNL001, first column",59.955%
same,YFP fluorescence quenching using CNL001,"50 nM CNL001, second column",56.091%
same,YFP fluorescence quenching using ABT-126,50 nM abt,−18.14%
same,YFP fluorescence quenching using CNL001,"100 nM CNL001, first column",64.536%
same,YFP fluorescence quenching using CNL001,"100 nM CNL001, second column",58.987%
same,YFP fluorescence quenching using CNL002,100 nM CNL002,−17.2%
same,YFP fluorescence quenching using ABT-126,100 nM abt,−18.14%
same,YFP fluorescence quenching using AZD-0328,100 nM azd0328,1.79%
same,YFP fluorescence quenching using TC-5619/Bradanicline,100 nM brd,70.19%
same,YFP fluorescence quenching using ABT-126,300 nM abt,−0.81%
same,YFP fluorescence quenching using AZD-0328,300 nM azd0328,66.58%
same,YFP fluorescence quenching using TC-5619/Bradanicline,300 nM brd,75.11%
same,YFP fluorescence quenching using Facinicline,300 nM fac,76.75
same,YFP fluorescence quenching using Varenicline,"300 nM var, first column",0.282
same,YFP fluorescence quenching using Varenicline,"300 nM var, second column",2.32
same,YFP fluorescence quenching using ABT-126,500 nM abt,23.29%
same,YFP fluorescence quenching using Varenicline,"500 nM var, first column",23.777
same,YFP fluorescence quenching using Varenicline,"500 nM var, second column",18.376
same,YFP fluorescence quenching using CNL001,"1 uM CNL001, first column",65.987%
same,YFP fluorescence quenching using CNL001,"1 uM CNL001, second column",64.312%
same,YFP fluorescence quenching using CNL002,1 uM CNL002,8.12%
same,YFP fluorescence quenching using ABT-126,1 uM abt,45.76%
same,YFP fluorescence quenching using TC-5619/Bradanicline,1 uM brd,77.42%
same,YFP fluorescence quenching using TC-6987,1 uM tc6987,2.51
same,YFP fluorescence quenching using Varenicline,"1 uM var, first column",66.17
same,YFP fluorescence quenching using Varenicline,"1 uM var, second column",66.088
same,YFP fluorescence quenching using ABT-126,3 uM abt,53.03%
same,YFP fluorescence quenching using ABT-126,10 uM abt,64.08%
same,YFP fluorescence quenching using Facinicline,10 uM fac,82.16
same,YFP fluorescence quenching using TC-6987,10 uM tc6987,46.22
same,YFP fluorescence quenching using CNL002,30 uM CNL002,57.24%
same,YFP fluorescence quenching using ABT-126,30 uM abt,71.98%
same,YFP fluorescence quenching using AZD-0328,30 uM azd0328,80.55%
same,YFP fluorescence quenching using Facinicline,30 uM fac,81.71
same,YFP fluorescence quenching using ABT-126,50 uM abt,73.98%
same,YFP fluorescence quenching using ABT-126,100 uM abt,73.51%
same,YFP fluorescence quenching using TC-6987,500 uM tc6987,68.33
same,"percent quench of YFP fluorescence, 30 nM TC-6683",,−16.26%
same,"percent quench of YFP fluorescence, 300 nM TC-6683",,−22.45%
same,"percent quench of YFP fluorescence, 3 uM TC-6683",,−13.48%
same,"percent quench of YFP fluorescence, 30 uM TC-6683",,−12.68%
same,"percent quench of YFP fluorescence, 100 uM TC-6683",,−10.33%
same,"percent quench of YFP fluorescence, 10 uM ach",,−2.57%
same,"percent quench of YFP fluorescence, 100 uM ach",,−3.18%
same,"percent quench of YFP fluorescence, 1 mM ach",,78.98%
same,"percent quench of YFP fluorescence, 3 mM ach",,75.75%
